Data taken from the supplement of paper PMC9876800.

Tested on: peptide library, one residue held at a place counted from the S/T acceptor
Assay: relative phosphorylation of the sub-library (ratio to the mean residue at this position); higher = residue favoured
Settings: human
Summary of the method: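 Purified recombinant kinases (human or orthologue constructs) were incubated in 384-well plates with biotinylated degenerate peptide sub-libraries, each fixing one residue at one position around a central Ser/Thr. Peptides were at 50 μM, with 50 μM ATP spiked with γ-32P-ATP, for 90 min under kinase-specific conditions. Spots on streptavidin membranes were phosphorimaged and quantified by densitometry. Relative sub-library phosphorylation is a ratio to the mean residue at that position.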

Chain of CDK18, construct: Full length (Q07002 whole entry, looked up): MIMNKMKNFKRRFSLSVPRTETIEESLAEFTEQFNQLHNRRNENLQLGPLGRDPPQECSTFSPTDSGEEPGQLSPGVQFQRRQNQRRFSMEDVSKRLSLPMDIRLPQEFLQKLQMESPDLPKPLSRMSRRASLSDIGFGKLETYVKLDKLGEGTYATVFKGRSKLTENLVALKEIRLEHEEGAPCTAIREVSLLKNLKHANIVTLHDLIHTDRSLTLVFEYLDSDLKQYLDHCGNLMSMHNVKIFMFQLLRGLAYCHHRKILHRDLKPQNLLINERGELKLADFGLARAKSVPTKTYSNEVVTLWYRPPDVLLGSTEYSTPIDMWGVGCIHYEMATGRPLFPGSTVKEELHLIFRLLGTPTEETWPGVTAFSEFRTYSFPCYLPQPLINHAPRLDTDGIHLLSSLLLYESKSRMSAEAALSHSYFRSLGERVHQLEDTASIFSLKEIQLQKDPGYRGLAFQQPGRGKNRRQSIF
Chain of STK26, construct: Full length (Q9P289 whole entry, looked up): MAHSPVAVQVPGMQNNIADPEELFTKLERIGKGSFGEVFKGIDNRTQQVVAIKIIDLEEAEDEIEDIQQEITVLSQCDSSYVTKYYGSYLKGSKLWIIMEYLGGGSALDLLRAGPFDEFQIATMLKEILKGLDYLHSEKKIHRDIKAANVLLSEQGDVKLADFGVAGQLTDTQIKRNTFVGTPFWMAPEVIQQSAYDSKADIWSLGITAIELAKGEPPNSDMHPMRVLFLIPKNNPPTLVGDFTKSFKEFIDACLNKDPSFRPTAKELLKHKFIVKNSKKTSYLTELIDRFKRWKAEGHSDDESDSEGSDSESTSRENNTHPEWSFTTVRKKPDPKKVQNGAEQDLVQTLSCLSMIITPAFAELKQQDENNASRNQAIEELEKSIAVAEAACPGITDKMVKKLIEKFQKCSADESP
Chain of BMPR1B, construct: aa149-end (O00238 149-502, looked up): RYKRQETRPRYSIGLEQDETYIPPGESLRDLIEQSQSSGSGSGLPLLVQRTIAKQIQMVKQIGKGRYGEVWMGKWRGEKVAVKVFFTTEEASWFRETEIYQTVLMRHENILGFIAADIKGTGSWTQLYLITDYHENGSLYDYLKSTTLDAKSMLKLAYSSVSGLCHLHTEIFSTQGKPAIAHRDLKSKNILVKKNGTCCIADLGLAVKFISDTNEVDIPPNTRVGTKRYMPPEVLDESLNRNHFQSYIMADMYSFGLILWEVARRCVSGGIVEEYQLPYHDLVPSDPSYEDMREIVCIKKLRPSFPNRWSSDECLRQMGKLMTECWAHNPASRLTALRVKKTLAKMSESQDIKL
Chain of ULK1, construct: aa1-649 (O75385 1-649, looked up): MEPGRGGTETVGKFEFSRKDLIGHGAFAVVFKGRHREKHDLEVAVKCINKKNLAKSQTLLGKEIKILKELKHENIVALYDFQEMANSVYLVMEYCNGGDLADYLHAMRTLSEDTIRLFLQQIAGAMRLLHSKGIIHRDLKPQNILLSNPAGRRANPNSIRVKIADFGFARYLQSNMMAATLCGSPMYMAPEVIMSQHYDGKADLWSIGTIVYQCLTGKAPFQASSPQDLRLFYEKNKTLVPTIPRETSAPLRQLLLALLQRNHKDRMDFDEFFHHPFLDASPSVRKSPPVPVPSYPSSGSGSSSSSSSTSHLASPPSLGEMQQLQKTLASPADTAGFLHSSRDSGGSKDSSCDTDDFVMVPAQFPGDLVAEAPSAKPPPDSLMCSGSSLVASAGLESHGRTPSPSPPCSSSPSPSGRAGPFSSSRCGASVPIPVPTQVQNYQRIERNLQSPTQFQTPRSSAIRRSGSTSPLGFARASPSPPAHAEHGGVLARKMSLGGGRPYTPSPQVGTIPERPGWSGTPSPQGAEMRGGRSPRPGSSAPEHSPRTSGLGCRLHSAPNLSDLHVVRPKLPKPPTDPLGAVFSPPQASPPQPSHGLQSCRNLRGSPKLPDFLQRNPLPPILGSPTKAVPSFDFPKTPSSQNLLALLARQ

CDK18, construct: Full length (from UniProt Q07002)
relative phosphorylation
Settings	at +1	at +2	at +3	at +4	at -1	at -2	at -3	at -4	at -5
A fixed	0.339	0.788	1.01	1.29	1.11	1.37	1.15	1.33	1.04
D fixed	0.148	0.632	0.364	0.521	0.489	0.384	0.605	0.835	0.919
E fixed	0.127	0.377	0.292	0.355	0.348	0.463	0.719	0.823	0.831
F fixed	0.196	0.581	1.03	0.759	0.57	0.705	0.539	0.696	0.844
G fixed	1.13	0.837	0.922	2.23	2.13	1.11	2.12	1.24	1.15
H fixed	0.274	1.23	0.695	1.21	0.987	0.807	1.05	1.02	1.37
I fixed	0.178	0.705	1.03	0.634	0.247	0.72	0.569	0.788	0.804
K fixed	0.316	2.28	0.862	1.33	1.67	0.671	0.937	1.48	1.53
L fixed	0.199	0.877	2.5	0.581	0.561	0.963	0.589	1	1.16
M fixed	0.196	0.901	1.46	0.699	0.934	0.887	0.648	0.718	0.799
N fixed	0.239	1.11	0.806	1.16	1.02	0.777	1.06	1.27	1.12
P fixed	12.4	0.972	2.05	0.831	1.71	3.93	2.29	1.43	1.12
Q fixed	0.279	1.06	1.03	0.969	1.13	0.999	1.03	1.01	0.77
R fixed	0.281	2.23	0.719	1.79	1.9	0.94	1.33	0.941	0.827
V fixed	0.263	0.744	1.04	0.703	0.379	0.852	0.768	0.596	0.677
W fixed	0.236	0.782	0.703	1.09	0.911	0.886	0.852	1.05	1.12
Y fixed	0.184	0.887	0.498	0.845	0.914	0.543	0.748	0.765	0.911
pThr fixed	0.415	0.681	0.949	0.372	0.316	0.823	0.982	0.951	0.78
pTyr fixed	0.508	0.48	0.815	0.591	0.341	0.572	0.943	0.82	1.07

BMPR1B, construct: aa149-end (from UniProt O00238)
relative phosphorylation
Settings	at +1	at +2	at +3	at +4	at -1	at -2	at -3	at -4	at -5
A fixed	1.07	1.39	1.01	0.984	0.997	0.924	1.21	1.09	1.34
D fixed	1.83	1.33	1.58	0.977	1.64	2.17	2.03	2.24	1.67
E fixed	5.67	1.49	1.56	1.15	1.77	6.66	2.3	1.75	1.49
F fixed	0.422	0.61	0.873	1	0.771	0.382	0.596	0.674	0.73
G fixed	0.798	1.57	0.953	1.03	0.637	0.725	1.14	1.26	1.2
H fixed	0.552	0.988	0.857	0.895	0.919	0.493	0.923	0.855	0.972
I fixed	0.631	0.606	0.753	0.984	0.833	0.496	0.586	0.704	0.681
K fixed	0.404	1.04	0.655	1.14	0.73	0.386	0.69	0.818	0.938
L fixed	0.503	0.727	0.935	0.888	1.1	0.553	0.663	0.733	0.766
M fixed	0.62	0.757	0.869	0.949	1.29	0.497	0.773	0.86	0.798
N fixed	0.743	0.911	0.961	0.926	0.901	0.679	1.08	0.92	1
P fixed	0.344	1.38	1.13	1.21	0.627	0.499	0.977	0.998	1.09
Q fixed	0.676	0.809	0.945	0.981	0.965	0.702	1.07	1.01	0.839
R fixed	0.48	0.842	0.891	0.924	0.791	0.439	0.803	0.801	0.869
V fixed	1.2	0.664	0.97	0.908	1.02	0.581	0.697	0.769	0.921
W fixed	0.519	0.897	1.01	1.02	0.844	0.397	0.659	0.744	0.892
Y fixed	0.528	0.985	1.04	1.04	1.17	0.415	0.795	0.764	0.799
pThr fixed	6.15	2.16	1.11	1.13	1.03	2.23	2.34	1.67	1.35
pTyr fixed	1.18	0.924	1.3	0.928	1.8	0.801	1.81	1.51	1.41

STK26, construct: Full length (from UniProt Q9P289)
relative phosphorylation
Settings	at +1	at +2	at +3	at +4	at -1	at -2	at -3	at -4	at -5
A fixed	0.593	0.524	0.871	0.922	0.76	0.947	0.809	1.21	1.23
D fixed	0.265	0.606	0.583	0.538	0.894	0.424	0.625	0.745	0.706
E fixed	0.21	0.519	0.525	0.538	0.475	0.373	0.616	0.797	0.653
F fixed	1.24	0.246	0.869	0.625	0.499	0.972	0.754	0.771	0.777
G fixed	0.583	2.19	1.44	0.991	2.31	1.21	1.09	1.09	1.03
H fixed	0.805	1.06	1	1.06	1.11	1.35	1.01	1.17	1.05
I fixed	1.56	0.511	0.798	0.971	0.397	0.759	0.711	0.83	0.929
K fixed	0.666	3.49	2.55	2.01	2.16	2.08	2.31	1.64	1.92
L fixed	1.78	0.402	1.05	0.77	0.78	0.549	0.665	0.682	0.783
M fixed	1.3	0.358	0.667	0.818	0.666	0.613	0.79	0.773	0.74
N fixed	0.53	1.27	0.771	0.862	1.39	1.15	1.15	1.08	0.994
P fixed	0.372	1.03	0.636	0.828	0.551	0.659	0.739	0.879	0.791
Q fixed	0.642	0.774	0.741	0.932	0.938	0.882	0.903	0.939	1
R fixed	0.722	2.77	2.16	1.89	2.15	2.03	2.21	1.64	1.61
V fixed	1.4	0.517	0.751	0.874	0.483	0.942	0.846	0.954	1.01
W fixed	3.2	0.394	0.814	1.38	0.821	1.01	0.943	0.941	0.969
Y fixed	1.12	0.326	0.767	0.994	0.607	1.05	0.824	0.876	0.812
pThr fixed	0.722	0.707	0.584	0.815	0.813	1.05	0.981	0.958	0.86
pTyr fixed	0.604	0.368	0.714	0.54	1.2	1.19	0.996	0.69	0.834

ULK1, construct: aa1-649 (from UniProt O75385)
relative phosphorylation
Settings	at +1	at +2	at +3	at +4	at -1	at -2	at -3	at -4	at -5
A fixed	0.56	0.645	0.867	0.899	1.17	1.22	0.964	1.16	1.15
D fixed	0.265	0.292	0.853	0.841	1.13	1.22	0.659	1.21	1.61
E fixed	0.424	0.307	0.834	0.944	1.19	1.19	0.572	0.905	1.02
F fixed	1.74	1.12	0.842	0.803	0.477	1.08	1.11	0.716	0.797
G fixed	0.359	0.409	1.04	1.11	0.79	0.916	0.884	1.3	1.18
H fixed	0.854	1.87	1.13	1.19	0.857	1.14	0.682	1.01	1.15
I fixed	1.53	1.26	0.869	0.738	0.543	0.753	0.674	0.678	0.572
K fixed	0.615	0.849	1.48	1.32	1.83	0.608	0.404	0.832	1.09
L fixed	1.13	0.94	0.901	0.836	0.723	0.799	1.56	0.821	0.733
M fixed	2.01	1.23	0.906	0.848	1.19	1.09	4.03	1.07	0.786
N fixed	0.563	0.816	0.891	1.01	1.09	0.947	1.1	1.2	1.42
P fixed	0.234	0.211	0.927	1.32	0.397	0.439	0.698	1.27	0.811
Q fixed	1.26	0.753	1.24	1.17	1.52	0.991	0.837	1.02	0.957
R fixed	0.725	0.989	1.2	0.993	1.57	0.545	0.447	0.844	1.1
V fixed	1.47	1.02	0.866	0.77	0.903	0.913	0.574	0.659	0.661
W fixed	1.39	1.65	1.1	1.2	0.82	1.93	1.2	1.6	1.18
Y fixed	1.87	2.64	1.04	1	0.794	1.22	0.599	0.716	0.786
pThr fixed	0.885	0.413	0.718	1.13	0.568	0.67	0.704	0.846	0.762
pTyr fixed	1.14	0.618	0.648	0.615	0.99	1.12	0.642	0.672	0.664
